# From patent publication WO2011147762A2
# Experiments:
# [1] = biological target: ED-B fibronectin antigen protein (recombinant), bound to CNBr activated sepharose 4B (UniProt P02751); assay: ED-B sepharose column, % of total radioactivity bound; Study A; maltose 10 mg/mL; day 5
# [2] = biological target: ED-B fibronectin antigen protein (recombinant), bound to CNBr activated sepharose 4B (UniProt P02751); assay: ED-B sepharose column, % of total radioactivity bound; Study A; maltose 50 mg/mL; day 0
# [3] = biological target: ED-B fibronectin antigen protein (recombinant), bound to CNBr activated sepharose 4B (UniProt P02751); assay: ED-B sepharose column, % of total radioactivity bound; Study A; methionine 10 mg/mL; day 7
# Chain of 131I L19-SIP (radioiodinated L19 SIP homodimer) (chain): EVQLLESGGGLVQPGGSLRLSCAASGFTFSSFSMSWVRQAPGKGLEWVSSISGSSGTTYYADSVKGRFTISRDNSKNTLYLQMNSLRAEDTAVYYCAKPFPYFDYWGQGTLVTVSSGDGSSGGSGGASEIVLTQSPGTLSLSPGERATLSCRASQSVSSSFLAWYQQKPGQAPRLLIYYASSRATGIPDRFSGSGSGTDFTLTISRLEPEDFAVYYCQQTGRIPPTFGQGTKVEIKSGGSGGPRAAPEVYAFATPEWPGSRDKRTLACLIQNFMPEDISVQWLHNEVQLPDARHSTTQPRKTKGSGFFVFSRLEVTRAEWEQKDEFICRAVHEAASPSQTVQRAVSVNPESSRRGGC
# Chain of 131I L19-SIP (radioiodinated L19 SIP homodimer) (chain): as above
# Chain of UniProt P02751 (P02751 1266-1356 limits assumed): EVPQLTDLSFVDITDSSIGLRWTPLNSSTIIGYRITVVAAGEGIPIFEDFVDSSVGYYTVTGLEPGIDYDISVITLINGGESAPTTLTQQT
substance,measurement,setting,value
131I L19-SIP (radioiodinated L19 SIP homodimer),Immunoreactivity (%),[1],57.2%
same,Immunoreactivity (%),[2],89.7%
same,Immunoreactivity (%),[3],54.8%
